Test results reported in patent publication US20250163186A1 (PHYLAXIS BIOSCIENCE, published 2025).

The binders below were run against T1, human IgE (human, UniProt P01854 1-428) (assay: ELISA, clone lysate on IgE-coated plate).
T1 construct: written under the same molecule; also called IgE (Abcam ab65866); soluble IgE
From the text: Each amino acid in CDR1 (SEQ ID NO:3), CDR2 (SEQ ID NO:68), and CDR3 (SEQ ID NO:74) was randomly replaced such that the 20 natural amino acids would likely all have been sampled at every position. The expression vector for the VHH containing the mutagenized CDRs was then transfected into E. coli, and at least 96 clones were randomly chosen for each position mutated in each CDR. This gives likely coverage of all potential mutations at each position since the probability to get any given amino acid at that position is 5%. […] The heat maps represent the relative binding for each clone determined by the range of OD values from the ELISA background to WT CDR binding (FIGS. 16A-16C). Site numbering for each residue tested is indicated by the inset tables in FIGS. 16A-16C.

T1 sequence (P01854 other isoform, or with tags, fused parts or gaps limits assumed, form in doubt): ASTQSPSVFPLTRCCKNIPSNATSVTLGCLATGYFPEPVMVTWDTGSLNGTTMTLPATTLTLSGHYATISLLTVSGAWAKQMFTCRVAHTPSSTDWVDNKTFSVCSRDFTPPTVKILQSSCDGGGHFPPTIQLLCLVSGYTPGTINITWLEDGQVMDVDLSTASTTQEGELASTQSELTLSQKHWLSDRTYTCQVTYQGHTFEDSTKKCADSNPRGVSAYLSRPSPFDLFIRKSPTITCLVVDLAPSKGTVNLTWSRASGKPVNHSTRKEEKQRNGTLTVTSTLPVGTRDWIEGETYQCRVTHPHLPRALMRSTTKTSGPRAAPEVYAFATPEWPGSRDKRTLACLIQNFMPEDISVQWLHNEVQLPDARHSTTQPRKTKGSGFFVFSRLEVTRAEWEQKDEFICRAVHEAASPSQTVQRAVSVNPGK

Row | Confirm OD450 Duplicate1 | Confirm OD450 Duplicate2 | R1 Screening OD450 | Binder
1 | 0.647 | 0.601 | 0.754 | 2-1F11 (VHH, also called hzB10v40 VHH, CDR1 site 2 L to I) VHH: EVQLLESGGGEVQPGGSLRLSCVASGITFSSYNMGWLRQAPGKEREFVGLSGSSSTSTYYAESVKGRFTISRDNAKNTVYLQMTSLRAEDTAVYYCAARRLLSTYWSDRSWDFWGQGTLVTVEP
2 | 0.609 | 0.573 | 0.914 | 5A1 (VHH, also called hzB10v40 VHH, CDR1 site 5 S to K) VHH: EVQLLESGGGEVQPGGSLRLSCVASGLTFKSYNMGWLRQAPGKEREFVGLSGSSSTSTYYAESVKGRFTISRDNAKNTVYLQMTSLRAEDTAVYYCAARRLLSTYWSDRSWDFWGQGTLVTVEP
3 | 0.567 | 0.559 | 0.857 | 3-1H1 (VHH, also called hzB10v40 VHH, CDR1 site 3 T to I) VHH: EVQLLESGGGEVQPGGSLRLSCVASGLIFSSYNMGWLRQAPGKEREFVGLSGSSSTSTYYAESVKGRFTISRDNAKNTVYLQMTSLRAEDTAVYYCAARRLLSTYWSDRSWDFWGQGTLVTVEP
4 | 0.607 | 0.572 | 0.896 | 3-1A1 (VHH, also called hzB10v40 VHH, CDR1 site 3 T to V) VHH: EVQLLESGGGEVQPGGSLRLSCVASGLVFSSYNMGWLRQAPGKEREFVGLSGSSSTSTYYAESVKGRFTISRDNAKNTVYLQMTSLRAEDTAVYYCAARRLLSTYWSDRSWDFWGQGTLVTVEP
5 | 0.579 | 0.586 | 1.05 | 4-2E2 (VHH, also called hzB10v40 VHH, CDR1 site 4 F to G) VHH: EVQLLESGGGEVQPGGSLRLSCVASGLTGSSYNMGWLRQAPGKEREFVGLSGSSSTSTYYAESVKGRFTISRDNAKNTVYLQMTSLRAEDTAVYYCAARRLLSTYWSDRSWDFWGQGTLVTVEP
6 | 0.57 | 0.594 | 0.904 | 3-1B10 (VHH, also called hzB10v40 VHH, CDR1 site 3 T to K) VHH: EVQLLESGGGEVQPGGSLRLSCVASGLKFSSYNMGWLRQAPGKEREFVGLSGSSSTSTYYAESVKGRFTISRDNAKNTVYLQMTSLRAEDTAVYYCAARRLLSTYWSDRSWDFWGQGTLVTVEP
7 | 0.621 | 0.62 | 0.914 | 2-2C3 (VHH, also called hzB10v40 VHH, CDR1 site 2 L to V) VHH: EVQLLESGGGEVQPGGSLRLSCVASGVTFSSYNMGWLRQAPGKEREFVGLSGSSSTSTYYAESVKGRFTISRDNAKNTVYLQMTSLRAEDTAVYYCAARRLLSTYWSDRSWDFWGQGTLVTVEP
8 | 0.582 | 0.483 | 0.798 | 4-1F11 (VHH, also called hzB10v40 VHH, CDR1 site 4 F to P) VHH: EVQLLESGGGEVQPGGSLRLSCVASGLTPSSYNMGWLRQAPGKEREFVGLSGSSSTSTYYAESVKGRFTISRDNAKNTVYLQMTSLRAEDTAVYYCAARRLLSTYWSDRSWDFWGQGTLVTVEP
9 | 0.697 | 0.545 | 0.709 | 4-1F10 (VHH, also called hzB10v40 VHH, CDR1 site 4 F to Y) VHH: EVQLLESGGGEVQPGGSLRLSCVASGLTYSSYNMGWLRQAPGKEREFVGLSGSSSTSTYYAESVKGRFTISRDNAKNTVYLQMTSLRAEDTAVYYCAARRLLSTYWSDRSWDFWGQGTLVTVEP
10 | 0.585 | 0.634 | 0.945 | 3-1B9 (VHH, also called hzB10v40 VHH, CDR1 site 3 T to N) VHH: EVQLLESGGGEVQPGGSLRLSCVASGLNFSSYNMGWLRQAPGKEREFVGLSGSSSTSTYYAESVKGRFTISRDNAKNTVYLQMTSLRAEDTAVYYCAARRLLSTYWSDRSWDFWGQGTLVTVEP
